Measurements taken from paper PMC6555819, “Comprehensive study of nuclear receptor DNA binding provides a revised framework for understanding receptor specificity”.
Where a chain is given by its changes, count along the chain named.

B1: NRC3_wobSeed128_DR5_G27T_o1 (dsDNA)
DNA 1: GCTCTTGTAGATCAACAGGAGGTTAATAAAGATCGAGCGATTGACAGCGTAGAATGAAGG
DNA 2: CCTTCATTCTACGCTGTCAATCGCTCGATCTTTATTAACCTCCTGTTGATCTACAAGAGC
B2: NRC3_wobSeed74_DR3_C26A_o1 (dsDNA)
DNA 1: GCTCTAGTTGGTCACGGAGGTCACAAACGACGGGTAGCGATTGACAGCGTAGAATGAAGG
DNA 2: CCTTCATTCTACGCTGTCAATCGCTACCCGTCGTTTGTGACCTCCGTGACCAACTAGAGC
B3: NRC3_wobSeed4_DR0_G11T_o1 (dsDNA)
DNA 1: GCCCTACTGGTCCAAGGTCATTGATCAGTCAAAGCAGCGATTGACAGCGTAGAATGAAGG
DNA 2: CCTTCATTCTACGCTGTCAATCGCTGCTTTGACTGATCAATGACCTTGGACCAGTAGGGC
B4: NRC3_wobSeed4_DR0_G11A_o1 (dsDNA)
DNA 1: B3 DNA 1 with T11A
DNA 2: B3 DNA 2 with A50T
B5: NRC3_wobSeed141_DR5_G21C_o1 (dsDNA)
DNA 1: GCAGTCAAAGTTCAGGACGACGTAACGTAAAGCACGGCGATTGACAGCGTAGAATGAAGG
DNA 2: CCTTCATTCTACGCTGTCAATCGCCGTGCTTTACGTTACGTCGTCCTGAACTTTGACTGC
B6: NRC3_wobSeed134_DR5_G26T_o1 (dsDNA)
DNA 1: GCGCTGCTAGGTCAACTGATGGTCATCTAAAGCTCGGCGATTGACAGCGTAGAATGAAGG
DNA 2: CCTTCATTCTACGCTGTCAATCGCCGAGCTTTAGATGACCATCAGTTGACCTAGCAGCGC
B7: NRC3_wobSeed20_DR0_A17T_o1 (dsDNA)
DNA 1: GCAGAATGAGGTTAAGTTCAGGGAAACAGAATACATGCGATTGACAGCGTAGAATGAAGG
DNA 2: CCTTCATTCTACGCTGTCAATCGCATGTATTCTGTTTCCCTGAACTTAACCTCATTCTGC
B8: NRC3_wobSeed34_DR1_T23C_o1 (dsDNA)
DNA 1: GCATCGAAAGGTCGAAGGTGAGCATACCCACCCGAAGCGATTGACAGCGTAGAATGAAGG
DNA 2: CCTTCATTCTACGCTGTCAATCGCTTCGGGTGGGTATGCTCACCTTCGACCTTTCGATGC
B9: NRC3_wobSeed2_DR0_C23T_o1 (dsDNA)
DNA 1: GCCCTAGTTGGTCAAGGTCACATACGCTATAGGTACGCGATTGACAGCGTAGAATGAAGG
DNA 2: CCTTCATTCTACGCTGTCAATCGCGTACCTATAGCGTATGTGACCTTGACCAACTAGGGC
B10: NRC3_wobSeed2_DR0_A24C_o1 (dsDNA)
DNA 1: B9 DNA 1 with T23C, A24C
DNA 2: B9 DNA 2 with T37G, A38G
B11: NRC3_wobSeed61_DR2_A17G_o1 (dsDNA)
DNA 1: GCCGTCCAAGGTCAGCGGGTCAGTGAAAGCGACGTGGCGATTGACAGCGTAGAATGAAGG
DNA 2: CCTTCATTCTACGCTGTCAATCGCCACGTCGCTTTCACTGACCCGCTGACCTTGGACGGC
B12: NRC3_wobSeed135_DR5_G26A_o1 (dsDNA)
DNA 1: GCCGAACTAGGTCATTGACAGGACAATGAATAGTAAGCGATTGACAGCGTAGAATGAAGG
DNA 2: CCTTCATTCTACGCTGTCAATCGCTTACTATTCATTGTCCTGTCAATGACCTAGTTCGGC
B13: NRC3_wobSeed65_DR2_G11T_o1 (dsDNA)
DNA 1: GCATATGTAGTTTATCGGGTCATTCAGTTTGCGCATGCGATTGACAGCGTAGAATGAAGG
DNA 2: CCTTCATTCTACGCTGTCAATCGCATGCGCAAACTGAATGACCCGATAAACTACATATGC
B14: NRC3_wobSeed124_DR5_T26A_o1 (dsDNA)
DNA 1: GCCCTACTGGGCCATTCAGAGGTCAATGATCATATGGCGATTGACAGCGTAGAATGAAGG
DNA 2: CCTTCATTCTACGCTGTCAATCGCCATATGATCATTGACCTCTGAATGGCCCAGTAGGGC
B15: NRC3_wobSeed124_DR5_A14G_o1 (dsDNA)
DNA 1: B14 DNA 1 with A14G, A26T
DNA 2: B14 DNA 2 with T35A, T47C
B16: NRC3_wobSeed88_DR3_G24A_o1 (dsDNA)
DNA 1: GCTAGCCTAGGTCATGCGGGCCAATATAGTGTCGGCGCGATTGACAGCGTAGAATGAAGG
DNA 2: CCTTCATTCTACGCTGTCAATCGCGCCGACACTATATTGGCCCGCATGACCTAGGCTAGC
B17: NRC3_wobSeed87_DR3_A21T_o1 (dsDNA)
DNA 1: GCCGAACTAGGTCATCCAGGTCAGTGAATACATTGAGCGATTGACAGCGTAGAATGAAGG
DNA 2: CCTTCATTCTACGCTGTCAATCGCTCAATGTATTCACTGACCTGGATGACCTAGTTCGGC
B18: NRC3_wobSeed64_DR2_A4T_o1 (dsDNA)
DNA 1: GCTTGCCTAGGTCATTGGGCCAGTATAGTACGCATCGCGATTGACAGCGTAGAATGAAGG
DNA 2: CCTTCATTCTACGCTGTCAATCGCGATGCGTACTATACTGGCCCAATGACCTAGGCAAGC
B19: NRC3_wobSeed5_DR0_A25C_o1 (dsDNA)
DNA 1: GCCCTTACGGGTCAAGGTTATAGCCCGGGTGGTACGGCGATTGACAGCGTAGAATGAAGG
DNA 2: CCTTCATTCTACGCTGTCAATCGCCGTACCACCCGGGCTATAACCTTGACCCGTAAGGGC
B20: NRC3_wobSeed75_DR3_G16A_o1 (dsDNA)
DNA 1: GCTCTCGGAGGACACAAAGGTCAGAGCTTTCCAGAGGCGATTGACAGCGTAGAATGAAGG
DNA 2: CCTTCATTCTACGCTGTCAATCGCCTCTGGAAAGCTCTGACCTTTGTGTCCTCCGAGAGC
B21: NRC3_wobSeed99_DR4_C13A_o1 (dsDNA)
DNA 1: GCTCTCGGAGGAAACGAAAGGTCAGAGCTCGACATCGCGATTGACAGCGTAGAATGAAGG
DNA 2: CCTTCATTCTACGCTGTCAATCGCGATGTCGAGCTCTGACCTTTCGTTTCCTCCGAGAGC
B22: NRC3_wobSeed40_DR1_A24G_o1 (dsDNA)
DNA 1: GCTAGCCTAGGTCATGGGCCAGTGTACCACGCGAACGCGATTGACAGCGTAGAATGAAGG
DNA 2: CCTTCATTCTACGCTGTCAATCGCGTTCGCGTGGTACACTGGCCCATGACCTAGGCTAGC
B23: NRC3_wobSeed40_DR1_A4C_o1 (dsDNA)
DNA 1: B22 DNA 1 with A4C, G24A
DNA 2: B22 DNA 2 with C37T, T57G
B24: NRC3_wobSeed82_DR3_G17C_o1 (dsDNA)
DNA 1: GCATCGAAAGGTCGACCAGGTGAGTATACACCGTTTGCGATTGACAGCGTAGAATGAAGG
DNA 2: CCTTCATTCTACGCTGTCAATCGCAAACGGTGTATACTCACCTGGTCGACCTTTCGATGC

Target: LXRa:RXRa (Homo sapiens, UniProt Q13133;P19793 full;full)
Sequence (Q13133 whole entry, chain 1 of 2): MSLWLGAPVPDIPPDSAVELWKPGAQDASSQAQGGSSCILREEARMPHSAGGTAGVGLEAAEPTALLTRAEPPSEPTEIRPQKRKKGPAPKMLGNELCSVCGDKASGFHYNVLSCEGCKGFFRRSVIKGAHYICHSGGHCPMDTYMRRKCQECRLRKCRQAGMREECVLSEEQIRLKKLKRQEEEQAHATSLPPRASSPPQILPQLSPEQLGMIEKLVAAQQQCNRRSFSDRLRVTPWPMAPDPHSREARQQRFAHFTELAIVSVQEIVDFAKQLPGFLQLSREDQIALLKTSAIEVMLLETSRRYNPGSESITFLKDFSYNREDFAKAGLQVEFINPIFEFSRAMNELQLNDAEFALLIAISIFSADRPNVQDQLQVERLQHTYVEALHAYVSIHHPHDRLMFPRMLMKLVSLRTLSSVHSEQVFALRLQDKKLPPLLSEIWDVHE
Sequence (P19793 whole entry, chain 2 of 2): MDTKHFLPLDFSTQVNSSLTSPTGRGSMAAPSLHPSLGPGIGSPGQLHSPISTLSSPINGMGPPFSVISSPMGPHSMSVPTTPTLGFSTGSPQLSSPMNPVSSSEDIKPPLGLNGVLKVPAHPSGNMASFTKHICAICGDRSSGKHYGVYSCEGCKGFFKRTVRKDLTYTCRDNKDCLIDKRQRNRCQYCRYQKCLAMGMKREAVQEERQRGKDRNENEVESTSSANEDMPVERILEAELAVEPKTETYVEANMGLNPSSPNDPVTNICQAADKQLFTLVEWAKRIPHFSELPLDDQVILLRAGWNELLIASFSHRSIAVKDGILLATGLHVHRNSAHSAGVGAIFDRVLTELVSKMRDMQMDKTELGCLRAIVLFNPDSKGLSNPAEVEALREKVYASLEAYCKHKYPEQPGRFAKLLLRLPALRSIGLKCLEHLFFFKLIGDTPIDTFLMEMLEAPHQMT
Experiment: no ligand; PBM; 270 nM : 90 nM RXRa; PBS pH 7.4, 2% milk, 0.02% Triton X-100, 1 mM DTT, BSA, 0.4 mg/ml salmon testes DNA
Settings: tags: His kept;His cleaved; copies: 1;1; label: surface-attached array probe
Outline: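 Custom Agilent 4×180K protein-binding microarrays carried double-stranded probes. Their 34-nt variable regions held direct-repeat seeds, single-nucleotide variants, half-site ablations and random human genomic background sequences. Arrays were incubated 1 h with ligand-free nuclear receptor dimers in PBS pH 7.4, 2% milk, 0.02% Triton X-100, 1 mM DTT, 0.2 mg/mL BSA and 0.4 mg/ml salmon testes DNA. Antibodies against each partner (one per run) detected binding, and scanned fluorescence was regression-normalized. Binding z-scores use random background probes as reference.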

| Binder | binding signal |
| --- | --- |
| B1 | 3.26 PBM z-score against 500 random probes |
| B2 | 3.23 PBM z-score against 500 random probes |
| B3 | 3.7 PBM z-score against 500 random probes |
| B4 | 3.62 PBM z-score against 500 random probes |
| B5 | 3.38 PBM z-score against 500 random probes |
| B6 | 3.56 PBM z-score against 500 random probes |
| B7 | 3.43 PBM z-score against 500 random probes |
| B8 | 3.46 PBM z-score against 500 random probes |
| B9 | 3.72 PBM z-score against 500 random probes |
| B10 | 3.48 PBM z-score against 500 random probes |
| B11 | 3.86 PBM z-score against 500 random probes |
| B12 | 3.59 PBM z-score against 500 random probes |
| B13 | 3.34 PBM z-score against 500 random probes |
| B14 | 3.77 PBM z-score against 500 random probes |
| B15 | 3.51 PBM z-score against 500 random probes |
| B16 | 3.29 PBM z-score against 500 random probes |
| B17 | 3.37 PBM z-score against 500 random probes |
| B18 | 3.21 PBM z-score against 500 random probes |
| B19 | 3.64 PBM z-score against 500 random probes |
| B20 | 3.54 PBM z-score against 500 random probes |
| B21 | 3.75 PBM z-score against 500 random probes |
| B22 | 3.31 PBM z-score against 500 random probes |
| B23 | 3.18 PBM z-score against 500 random probes |
| B24 | 3.67 PBM z-score against 500 random probes |
